The values that follow come from US20240043507A1.

Common to all, as to test: cell-based or functional assay
For test [1], the target named is spike protein of SARS-CoV-2 strain B.1.351 (SARS-CoV-2) (UniProt P0DTC2).
The target of test [2] is spike protein of SARS-CoV-2 strain B.1.1.7 (SARS-CoV-2) (UniProt P0DTC2).
In test [3] the target is SARS-CoV-2 spike protein on authentic virus, strain SARS-CoV-2/human/AUS/VIC01/2020 (Victoria) (SARS-CoV-2) (UniProt P0DTC2).
Test [4] addresses spike protein of SARS-CoV-2 strain Victoria (SARS-CoV-2/human/AUS/VIC01/2020) (SARS-CoV-2) (UniProt P0DTC2).
Test [5] has as its target SARS-CoV-2 spike protein on authentic virus, strain B.1.1.7 (SARS-CoV-2) (UniProt P0DTC2).
Test [6] addresses spike protein of SARS-CoV-2 strain P.1 (SARS-CoV-2) (UniProt P0DTC2).

Regarding REGN10933 (antibody), the results for the IC50 (FRNT neutralisation) in test [1], in test [2] and in test [4] were 3.28 µg/mL, 0.014 µg/mL and 4 ng/mL, respectively. Moreover, the IC50 (ug/ml), FRNT was 0.004 µg/mL in test [3] and 0.014 µg/mL in test [5]. For the same substance, in test [4], the IC50 (FRNT, live virus neutralisation) was determined as 4 ng/mL.

With LY-CoV555 (antibody), the FRNT50 ratio B.1.351/Victoria in test [1] is greater than 1550. The IC50 (FRNT neutralisation) was greater than 10 µg/mL in test [1], 0.009 µg/mL in test [2] and 6 ng/mL in test [4]. In addition, in test [2], the FRNT50 ratio B.1.1.7/Victoria was determined as 1.5. The FRNT50 ratio P.1/Victoria in test [6] is greater than 1550.

With ADG20 (antibody), in test [1], the FRNT50 ratio B.1.351/Victoria was found to be 2.5. Besides, the IC50 (FRNT neutralisation) in test [1] is 0.01 µg/mL; in test [2] it was 0.006 µg/mL; in test [4] it was 4 ng/mL. Further, the FRNT50 ratio B.1.1.7/Victoria in test [2] came out at 1.4. Moreover, the FRNT50 ratio P.1/Victoria in test [6] amounted to 2.2.

Regarding S309 (antibody), in test [1], the FRNT50 ratio B.1.351/Victoria is 2. The IC50 (FRNT neutralisation) in test [1] was 0.082 µg/mL; in test [2], 0.078 µg/mL; in test [4], 40 ng/mL. Also, the FRNT50 ratio B.1.1.7/Victoria in test [2] was determined as 1.5. Moreover, in test [6], the FRNT50 ratio P.1/Victoria was determined as 1.9.

On to ADG10 (antibody), for which, in test [1], the FRNT50 ratio B.1.351/Victoria is 1.9 and the IC50 (FRNT neutralisation) came out at 0.011 µg/mL. Moreover, in test [2], the FRNT50 ratio B.1.1.7/Victoria came to 1.8 and the IC50 (FRNT neutralisation) is 0.01 µg/mL. Also, the IC50 (FRNT neutralisation) in test [4] turned out to be 6 ng/mL. The FRNT50 ratio P.1/Victoria in test [6] worked out at 0.5.

For AZD8895 (antibody), the values for the IC50 (FRNT neutralisation) in test [1], in test [2] and in test [4] were 0.046 µg/mL, 0.011 µg/mL and 5 ng/mL, respectively. For the same substance, the IC50 (ug/ml), FRNT amounted to 0.005 µg/mL in test [3] and 0.011 µg/mL in test [5]. In test [4], this substance returned an IC50 (FRNT, live virus neutralisation) of 5 ng/mL.

For the substance LY-CoV16 (antibody), the FRNT50 ratio B.1.351/Victoria in test [1] was greater than 291. In addition, the IC50 (FRNT neutralisation) in test [1] was greater than 10 µg/mL; in test [2], 3.23 µg/mL; in test [4], 34 ng/mL. For the same substance, the FRNT50 ratio B.1.1.7/Victoria in test [2] worked out at 1.5. Moreover, the FRNT50 ratio P.1/Victoria in test [6] was greater than 291.

REGN10987 (antibody): the IC50 (FRNT neutralisation) in test [1] worked out at 0.007 µg/mL; in test [2], 0.028 µg/mL; in test [4], 32 ng/mL. Besides, the IC50 (ug/ml), FRNT came to 0.032 µg/mL in test [3] and 0.028 µg/mL in test [5]. The IC50 (FRNT, live virus neutralisation) in test [4] amounted to 32 ng/mL.

Take ADG30 (antibody): in test [1], the FRNT50 ratio B.1.351/Victoria worked out at 4.4 and the IC50 (FRNT neutralisation) was determined as 0.029 µg/mL. Besides, in test [2], the FRNT50 ratio B.1.1.7/Victoria was 2.5 and the IC50 (FRNT neutralisation) came to 0.016 µg/mL. In addition, the IC50 (FRNT neutralisation) in test [4] was 7 ng/mL. For the same substance, the FRNT50 ratio P.1/Victoria in test [6] came out at 0.3.

As to AZD1061 (antibody), the IC50 (FRNT neutralisation) in test [1] came to 0.014 µg/mL; in test [2], 0.012 µg/mL; in test [4], 13 ng/mL. Besides, the IC50 (ug/ml), FRNT in test [3] turned out to be 0.013 µg/mL; in test [5] it was 0.012 µg/mL. For the same substance, the IC50 (FRNT, live virus neutralisation) in test [4] came to 13 ng/mL.
